Laboratory results as given in US20230331869A1.

Experiments:
Assay in all cases: fibrinogen 15mer peptide array
[1] = target: T1, FIBA 218-232
T1 sequence (peptide): FKSQLQKVPPEWKAL

[2] = target: T2, FIBA 507-521
T2 sequence (peptide): FPGFFSPMLGEFVSE

[3] = target: T3, FIBA 514 528
T3 sequence (peptide): FSPMLGEFVSETESR

[4] = target: T4, FIBA 602-616
T4 sequence (peptide): RGHAKSRPVRGIHTS

[5] = target: T5, FIBG 123-137
T5 sequence (peptide): NLKEKVAQLEAQCQE

[6] = target: T6, FIBG 15-29
T6 sequence (peptide): FGSYCPTTCGIADFL

[7] = target: T7, FIBG 202-216
T7 sequence (peptide): DFKKNWIQYKEGFGH

[8] = target: T8, FIBG 206-220
T8 sequence (peptide): NWIQYKEGFGHLSPT

[9] = target: T9, FIBG 214-228
T9 sequence (peptide): FGHLSPTGTTEFWLG

[10] = target: T10, FIBG 287-301
T10 sequence (peptide): GDAFDGFDFGDDPSD

[11] = target: T11, FIBG 303-317
T11 sequence (peptide): FFTSHNGMQFSTWDN

[12] = target: T12, FIBG 335-349
T12 sequence (peptide): WMNKCHAGHLNGVYY

[13] = target: T13, FIBG 7-21
T13 sequence (peptide): NCCILDERFGSYCPT

[14] = substrate: T14, FIBB 107-121
T14 sequence (peptide): VSQTSSSSFQYMYLL

[15] = substrate: T15, FIBB 139-153
T15 sequence (peptide): VNEYSSELEKHQLYI

[16] = substrate: T16, FIBB 191-205
T16 sequence (peptide): EYCRTPCTVSCNIPV

[17] = substrate: T17, FIBB 235-249
T17 sequence (peptide): PYRVYCDMNTENGGW

[18] = substrate: T18, FIBB 258-262
T18 sequence (peptide): SVDFGRKWDPYKQGF

[19] = substrate: T19, FIBB 283-297
T19 sequence (peptide): KNYCGLPGEYWLGND

[20] = substrate: T20, FIBB 315-329
T20 sequence (peptide): EDWKGDKVKAHYGGF

[21] = substrate: T21, FIBB 319-333
T21 sequence (peptide): GDKVKAHYGGFTVQN

[22] = substrate: T22, FIBB 391-405
T22 sequence (peptide): RKQCSKEDGGGWWYN

[23] = substrate: T23, FIBB 395-409
T23 sequence (peptide): SKEDGGGWWYNRCHA

[24] = substrate: T24, FIBB 407-421
T24 sequence (peptide): CHAANPNGRYYWGGQ

[25] = substrate: T25, FIBB 415-429
T25 sequence (peptide): RYYWGGQYTWDMAKH

[26] = substrate: T26, FIBB 427-431
T26 sequence (peptide): AKHGTDDGVVWMNWK

[27] = substrate: T27, FIBB 63-77
T27 sequence (peptide): GGCLHADPDLGVLCP

[28] = substrate: T28, FIBB 71-85
T28 sequence (peptide): DLGVLCPTGCQLQEA

signal intensity (RLU) [1]: 6880 RLU
signal intensity (RLU) [2]: 3370 RLU
signal intensity (RLU) [3]: 5030 RLU
signal intensity (RLU) [4]: 2570 RLU
signal intensity (RLU) [5]: 3130 RLU
signal intensity (RLU) [6]: 3150 RLU
signal intensity (RLU) [7]: 9080 RLU
signal intensity (RLU) [8]: 6580 RLU
signal intensity (RLU) [9]: 8260 RLU
signal intensity (RLU) [10]: 11400 RLU
signal intensity (RLU) [11]: 6750 RLU
signal intensity (RLU) [12]: 50000 RLU
signal intensity (RLU) [13]: 5760 RLU
signal intensity (RLU) [14]: 2930 RLU
signal intensity (RLU) [15]: 6790 RLU
signal intensity (RLU) [16]: 2790 RLU
signal intensity (RLU) [17]: 3610 RLU
signal intensity (RLU) [18]: 6910 RLU
signal intensity (RLU) [19]: 8780 RLU
signal intensity (RLU) [20]: 5070 RLU
signal intensity (RLU) [21]: 2670 RLU
signal intensity (RLU) [22]: 2980 RLU
signal intensity (RLU) [23]: 3470 RLU
signal intensity (RLU) [24]: 9200 RLU
signal intensity (RLU) [25]: 12900 RLU
signal intensity (RLU) [26]: 2640 RLU
signal intensity (RLU) [27]: 2780 RLU
signal intensity (RLU) [28]: 2550 RLU
B1: antibody G or 45-C1C3 antibody (antibody, V domains shown)
VH: EVQLVESGGGAVQPGRSLRLSCAASGVSFSNIGMHWVRQAPGKGLEWVALISSDGRHTHYADSVKGRFTISRDNSENTLYLQINGLRADDTAVYYCAKGLDTRARYMGKFYTFDYWGQGTLVTVSS
VL: DIQLTQSPSSLSASVGDRVTITCRASQNIGVNLNWYQQRPGKGPKLLVSSTFSLQSGVPSRFSASGAGTNFTLTISSLQPEDYVTYYCQQSYSSPFTFGPGTKVDIK
